One assay relates to human HNF-1α. Put plainly: in vitro protein degradation test of HNF-1α by calpain (Western blotting). The format is biochemical. The conditions noted are these: 1 hour at 37° C. The procedure:
Using the HNF-1α expression plasmid, in vitro synthesis of HNF-1α protein was carried out using the TNT T7 Quick Coupled Transcription/Translation System. That is, the HNF-1α expression plasmid was mixed with TNT T7 Quick Master Mix, and then incubated for 1.5 hours at 30° C. in the presence of methionine to synthesize HNF-1α. Thereafter, immunoprecipitation was conducted by adding anti-Xpress antibody to the synthesized HNF-1α, mixing by inversion for 1 hour at 4° C., and then adding Protein G Sepharose 4 Fast Flow and mixing by inversion for an additional 1 hour at 4° C. Subsequently, Protein G Sepharose was collected by centrifugation and washed 3 times with washing buffer (50 mM Tris-HCl, pH 7.5/150 mM NaCl/0.2% Nonidet P-40), followed by rinsing with 200 mM Tris-HCl (pH 7.8) to obtain the HNF-1α sample as 20% slurry (hereunder, referred to as “HNF-1α slurry”).
Protein degradation tests were carried out in vitro by adding μ-calpain or m-calpain to the HNF-1α slurry, and incubating for 1 hour at 37° C. in the presence of 200 mM Tris-HCl (pH 7.8)/1 mM DTT/6 mM CaCl2. The final concentrations of the respective calpain in the reaction system were as follows: 50 units/mL of human μ-calpain; 50 μg/mL of rabbit m-calpain as a protein concentration; and 59 units/mL of rat m-calpain. For a control experiment, an HNF-1α slurry was incubated without the addition of calpain in a similar manner in the presence of calcium. Further, to test for protein degradation in the absence of calcium, a sample was prepared by adding 10 mM of EDTA instead of 6 mM of CaCl2 and was incubated in the same manner. The samples after incubation were added to an equal volume of 2×SDS sample buffer, heated for 5 minutes, and then subjected to 5-20% SDS-PAGE for separation. Thereafter, Western blotting was carried out to detect HNF-1α using anti-Omni/M21 antibody (Santa Cruz Biotechnology, Inc.), which recognizes a His-Xpress region, and anti-HNF-1α antibody/HNF-1α (C-19) antibody (Santa Cruz Biotechnology, Inc.). An ECL Western blotting detection kit was used for conducting the detection.
In-vitro protein degradation tests were carried out in the same manner as in Example 7, but the lysate of sf-9 cells that coexpressed m-calpain with calpain small subunit 1 was used as m-calpain. The final concentration of the lysate of the sf-9 cells that expressed these proteins in the reaction system was 1.75 mg/mL as a protein concentration. The final concentration of rat m-calpain in the reaction system was 59 units/mL. Detection of HNF-1α was performed in the same manner as Example 7, but only anti-HNF-1α antibody/HNF-1α (C-19) antibody was used.

Another assay relates to human IPF-1. Put plainly: in vitro protein degradation test of IPF-1 by calpain (Western blotting). The class given is biochemical. To be noted: 1 hour at 37° C. The procedure:
Using the IPF-1 expression plasmid, synthesis of IPF-1 protein was carried out in vitro using the TNT T7 Quick Coupled Transcription/Translation System. That is, the IPF-1 expression plasmid was mixed with TNT T7 Quick Master Mix, and then incubated for 1.5 hours at 30° C. in the presence of methionine to synthesize IPF-1.
Protein degradation tests were carried out in vitro by adding μ-calpain or m-calpain to IPF-1, and incubating for 1 hour at 37° C. in the presence of 200 mM Tris-HCl (pH 7.8)/1 mM DTT/6 mM CaCl2. The final concentrations of each calpain in the reaction systems were as follows: 50 units/mL of human μ-calpain; 50 μg/mL of rabbit m-calpain as a protein concentration, and 59 units/mL of rat m-calpain. For a control experiment, IPF-1 was incubated without addition of calpain in the same manner in the presence of calcium. Further, to test for protein degradation in the absence of calcium, a sample was prepared by adding 10 mM of EDTA instead of 6 mM of CaCl2, and incubated in the same manner. The samples after incubation were added to an equal volume of 2×SDS sample buffer, heated for 5 minutes, and subjected to 5-20% SDS-PAGE for separation. Thereafter, Western blotting was carried out to detect IPF-1 using anti-Xpress antibody and anti-IPF1 (PDX-1) antibody/N-18 (Santa Cruz Biotechnology, Inc.). The ECL Western blotting detection kit was used for conducting the detection.
In-vitro protein degradation tests were carried out in the same manner as Example 10, but the lysate of sf-9 cells that coexpressed m-calpain with calpain small subunit 1 was used as m-calpain. The final concentration of the lysate of sf-9 cells that expressed these proteins in the reaction system was 2.33 mg/mL as a protein concentration. The final concentration of rat m-calpain in the reaction system was 59 units/mL. Detection of IPF-1 was performed in the same manner as Example 10, but only anti-IPF-1 antibody/N-18 was used.

The mark [1] stands for this setting: in the absence of calcium (10 mM EDTA instead of CaCl2).
The mark [2] stands for this setting: in the presence of calcium (6 mM CaCl2), Western blotting.

B1: human m-calpain: lysate of sf-9 insect cells coexpressing human m-calpain with calpain small subunit 1; FLAG-tagged, expressed in HEK293T cells, in Example 3 (protein, UniProt P17655 20-700; P04632 1-268, looked up)
Calpain-2 catalytic subunit: SHDRAIKYLNQDYEALRNECLEAGTLFQDPSFPAIPSALGFKELGPYSSKTRGIEWKRPTEICADPQFIIGGATRTDICQGALGDCWLLAAIASLTLNEEILARVVPLNQSFQENYAGIFHFQFWQYGEWVEVVVDDRLPTKDGELLFVHSAEGSEFWSALLEKAYAKINGCYEALSGGATTEGFEDFTGGIAEWYELKKPPPNLFKIIQKALQKGSLLGCSIDITSAADSEAITFQKLVKGHAYSVTGAEEVESNGSLQKLIRIRNPWGEVEWTGRWNDNCPSWNTIDPEERERLTRRHEDGEFWMSFSDFLRHYSRLEICNLTPDTLTSDTYKKWKLTKMDGNWRRGSTAGGCRNYPNTFWMNPQYLIKLEEEDEDEEDGESGCTFLVGLIQKHRRRQRKMGEDMHTIGFGIYEVPEELSGQTNIHLSKNFFLTNRARERSDTFINLREVLNRFKLPPGEYILVPSTFEPNKDGDFCIRVFSEKKADYQAVDDEIEANLEEFDISEDDIDDGFRRLFAQLAGEDAEISAFELQTILRRVLAKRQDIKSDGFSIETCKIMVDMLDSDGSGKLGLKEFYILWTKIQKYQKIYREIDVDRSGTMNSYEMRKALEEAGFKMPCQLHQVIVARFADDQLIIDFDNFVRCLVRLETLFKIFKQLDPENTGTIELDLISWLCFSVL
Calpain small subunit 1: MFLVNSFLKGGGGGGGGGGGLGGGLGNVLGGLISGAGGGGGGGGGGGGGGGGGGGGTAMRILGGVISAISEAAAQYNPEPPPPRTHYSNIEANESEEVRQFRRLFAQLAGDDMEVSATELMNILNKVVTRHPDLKTDGFGIDTCRSMVAVMDSDTTGKLGFEEFKYLWNNIKRWQAIYKQFDTDRSGTICSSELPGAFEAAGFHLNEHLYNMIIRRYSDESGNMDFDNFISCLVRLDAMFRAFKSLDKDGTGQIQVNIQEWLQLTMYS
modifications: FLAG tag
Turning to B1, the “degradation of HNF-1α” value is reported as “not observed” in the assay with human HNF-1α (setting [1]) and “observed” with human HNF-1α (setting [2]). Moreover, the “degradation of IPF-1” value in the assay with human IPF-1 (setting [1]) is listed as “not observed”; with human IPF-1 (setting [2]), “observed”.

These data come from patent publication US20070004636A1, “Method of degrading transcriptional factors of saccharometabolism-associated gene, method for inhibiting the degradation, and agent for inhibiting degradation and degradation inhibitor” (priority 2002, published 2007).
